Consider eight molecules from publication PMC5678113, “Substrate Specificity and Allosteric Regulation of a D-Lactate Dehydrogenase from a Unicellular Cyanobacterium are Altered by an Amino Acid Substitution” (Scientific Reports, 2017).

Assay in all cases: NADH oxidation followed at A340
The target of data set [1] is T1, SyDdh (GST-SyDdh) (Synechocystis sp. PCC 6803, UniProt P74586).
T1 construct: gene ddh; Full ddh ORF, GST-tagged (tag kept, pGEX5X-1), expressed in E. coli DH5alpha, glutathione-Sepharose purified
T1 sequence (P74586 1-333): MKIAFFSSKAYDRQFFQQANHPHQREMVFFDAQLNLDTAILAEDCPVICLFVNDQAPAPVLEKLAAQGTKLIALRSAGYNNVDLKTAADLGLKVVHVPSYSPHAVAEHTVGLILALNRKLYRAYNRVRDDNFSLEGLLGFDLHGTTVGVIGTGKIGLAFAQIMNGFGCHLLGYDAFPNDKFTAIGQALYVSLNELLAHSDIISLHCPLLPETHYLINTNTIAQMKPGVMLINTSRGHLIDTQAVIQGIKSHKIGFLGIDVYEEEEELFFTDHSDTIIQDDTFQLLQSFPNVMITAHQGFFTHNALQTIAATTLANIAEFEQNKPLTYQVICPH
The format is biochemical. The note with it: pH 7.5, 30 °C, 0.1 mM NADH, no Mg2+; substrate inhibition. The source says: (§1) NADH oxidation followed at A340 on SyDdh (GST-SyDdh)

The target of data set [2] is T2, SyDdh (GST-SyDdh) (Synechocystis sp. PCC 6803, UniProt P74586, S234G).
T2 construct: gene ddh; Full ddh ORF, GST-tagged (tag kept, pGEX5X-1), expressed in E. coli DH5alpha, glutathione-Sepharose purified
T2 sequence (P74586 entry or part of it S234G): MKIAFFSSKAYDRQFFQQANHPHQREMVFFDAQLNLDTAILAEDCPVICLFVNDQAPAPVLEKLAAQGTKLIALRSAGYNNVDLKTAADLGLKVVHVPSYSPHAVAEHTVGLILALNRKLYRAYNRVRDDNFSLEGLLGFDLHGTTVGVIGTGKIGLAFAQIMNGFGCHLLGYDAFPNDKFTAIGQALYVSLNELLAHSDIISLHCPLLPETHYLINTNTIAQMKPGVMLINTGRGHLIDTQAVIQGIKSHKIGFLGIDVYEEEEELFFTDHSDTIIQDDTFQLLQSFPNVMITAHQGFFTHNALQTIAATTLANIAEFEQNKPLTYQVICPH
The format is biochemical. The note with it: pH 7.5, 30 °C, 0.1 mM NADH, no Mg2+; substrate inhibition.
Excerpt: as §1

Data set [3] addresses T1, SyDdh (GST-SyDdh). It counts as biochemical. The conditions noted are these: for remaining activity at 2500 µM: read-out: % residual activity at 2.5 mM.
The target of data set [4] is T3, SyDdh (GST-SyDdh) (Synechocystis sp. PCC 6803, UniProt P74586, Q14E).
T3 construct: gene ddh; Full ddh ORF, GST-tagged (tag kept, pGEX5X-1), expressed in E. coli DH5alpha, glutathione-Sepharose purified
T3 sequence (P74586 entry or part of it Q14E): as the sequence (P74586 entry or part of it S234G) above, with Q14E, G234S counted along it
The format is biochemical. The note with it: pH 7.5, 30 °C, 0.1 mM NADH, no Mg2+; substrate inhibition.
Excerpt: as §1

Substrate in data set [5]: CC(=O)C(=O)O
It counts as biochemical, Synechocystis sp. PCC 6803. The conditions noted are these: pH 7.5, 30 °C, 0.1 mM NADH, no Mg2+, Hill coefficient 2.51.

Substrate in data set [6]: NC(=O)C1=CN([C@@H]2O[C@H](COP(=O)(O)OP(=O)(O)OC[C@H]3O[C@@H](n4cnc5c(N)ncnc54)[C@H](O)[C@@H]3O)[C@@H](O)[C@H]2O)C=CC1
It counts as biochemical, Synechocystis sp. PCC 6803. The conditions noted are these: pH 7.5, 30 °C, varied: cofactor.

Substrate in data set [7]: O=C(O)CC(=O)C(=O)O
The format is biochemical, Synechocystis sp. PCC 6803. The conditions noted are these: pH 7.5, 30 °C, 0.1 mM NADH, no Mg2+.
Excerpt: as §1

Substrate in data set [8]: CC(=O)C(=O)O
It counts as biochemical, Synechocystis sp. PCC 6803. The conditions noted are these: pH 7.5, 30 °C, 0.1 mM NADH, no Mg2+.
Excerpt: as §1

Changes are numbered by the printed parent chain. Numbers in names are those of the source.

Consider `O=C(O)CC(=O)C(=O)O` [oxaloacetate], for which the “K i” value at SyDdh (GST-SyDdh) [1] is listed as 8.56 ± 3.39 mM; on SyDdh (GST-SyDdh) [2], 5.74 ± 1.04 mM.

As for `NC(=O)C(=O)O` [oxamate], at SyDdh (GST-SyDdh) [3], the remaining activity at 2500 µM worked out at 42%.

For the molecule `CC(=O)C(=O)O` [pyruvate], the “K i” value at SyDdh (GST-SyDdh) [4] was found to be 16.51 ± 5.98 mM.

On to `O=P(O)(O)OC[C@H]1OC(O)(COP(=O)(O)O)[C@@H](O)[C@@H]1O` (some centres unmarked) [FBP], for which the activity at 2500 µM on SyDdh (GST-SyDdh) [3] (read-out: % activity at 2.5 mM) worked out at 134%.

`Nc1ncnc2c1ncn2[C@@H]1O[C@H](COP(=O)(O)OP(=O)(O)OP(=O)(O)O)[C@@H](O)[C@H]1O` [ATP]: the remaining activity at 2500 µM on SyDdh (GST-SyDdh) [3] stood at 72%.

B1: SyDdh (GST-SyDdh) (Synechocystis sp. PCC 6803 substr. Kazusa) (protein)
chain: T1 sequence (P74586 1-333)
notes: Full ddh ORF, GST-tagged (tag kept, pGEX5X-1), expressed in E. coli DH5alpha, glutathione-Sepharose purified
The kcat is the maximal rate divided by the concentration of active sites. A word on the kcat/Km: it is the turnover number divided by the Michaelis constant. In the case of B1, in data set [5], the K0.5 was determined as 0.38 ± 0.04 mM, the kcat worked out at 2.71 ± 0.26 s⁻¹ and the kcat/Km is 7140 ± 1150 M⁻¹ s⁻¹. Moreover, in data set [6], the K0.5 was found to be 0.028 ± 0.002 mM and the kcat came out at 2.60 ± 0.25 s⁻¹.

B2: SyDdh (GST-SyDdh) (Synechocystis sp. PCC 6803 substr. Kazusa; S234G) (protein)
chain: T1 sequence (P74586 1-333) with S234G
notes: as for B1
Turning to B2, in data set [7] (substrate-inhibition fit), the K0.5 amounted to 0.59 ± 0.05 mM, the kcat is 1.27 ± 0.24 s⁻¹ and the kcat/Km worked out at 2190 ± 520 M⁻¹ s⁻¹. Also, in data set [8] (Hill coefficient 1.64), the K0.5 is 2.10 ± 0.18 mM, the kcat was 1.71 ± 0.26 s⁻¹ and the kcat/Km was determined as 820 ± 130 M⁻¹ s⁻¹.

B3: SyDdh (GST-SyDdh) (Synechocystis sp. PCC 6803 substr. Kazusa; Q14E) (protein)
chain: T1 sequence (P74586 1-333) with Q14E
notes: as for B1
For B3, in data set [7] (Hill coefficient 0.95), the K0.5 is 1.71 ± 0.38 mM, the kcat turned out to be 2.38 ± 0.1 s⁻¹ and the kcat/Km is 1460 ± 310 M⁻¹ s⁻¹. Moreover, in data set [8] (substrate-inhibition fit), the K0.5 is recorded as 0.52 ± 0.10 mM, the kcat is 4.11 ± 0.71 s⁻¹ and the kcat/Km was 7980 ± 350 M⁻¹ s⁻¹.
